Residue numbers refer to the chain shown, from its start. Names and notes keep the numbering of the source.
T1: A2ML1 (α2-macroglobulin-like protein 1) (Homo sapiens, UniProt A8K2U0)
T1 construct: full-length recombinant, secreted by HEK293 Freestyle cells, no tag mentioned, purified by Zn IMAC, anion exchange and size exclusion; monomer; bait region cleaved by chymotrypsin in the assay
T1 sequence (A8K2U0 18-1454): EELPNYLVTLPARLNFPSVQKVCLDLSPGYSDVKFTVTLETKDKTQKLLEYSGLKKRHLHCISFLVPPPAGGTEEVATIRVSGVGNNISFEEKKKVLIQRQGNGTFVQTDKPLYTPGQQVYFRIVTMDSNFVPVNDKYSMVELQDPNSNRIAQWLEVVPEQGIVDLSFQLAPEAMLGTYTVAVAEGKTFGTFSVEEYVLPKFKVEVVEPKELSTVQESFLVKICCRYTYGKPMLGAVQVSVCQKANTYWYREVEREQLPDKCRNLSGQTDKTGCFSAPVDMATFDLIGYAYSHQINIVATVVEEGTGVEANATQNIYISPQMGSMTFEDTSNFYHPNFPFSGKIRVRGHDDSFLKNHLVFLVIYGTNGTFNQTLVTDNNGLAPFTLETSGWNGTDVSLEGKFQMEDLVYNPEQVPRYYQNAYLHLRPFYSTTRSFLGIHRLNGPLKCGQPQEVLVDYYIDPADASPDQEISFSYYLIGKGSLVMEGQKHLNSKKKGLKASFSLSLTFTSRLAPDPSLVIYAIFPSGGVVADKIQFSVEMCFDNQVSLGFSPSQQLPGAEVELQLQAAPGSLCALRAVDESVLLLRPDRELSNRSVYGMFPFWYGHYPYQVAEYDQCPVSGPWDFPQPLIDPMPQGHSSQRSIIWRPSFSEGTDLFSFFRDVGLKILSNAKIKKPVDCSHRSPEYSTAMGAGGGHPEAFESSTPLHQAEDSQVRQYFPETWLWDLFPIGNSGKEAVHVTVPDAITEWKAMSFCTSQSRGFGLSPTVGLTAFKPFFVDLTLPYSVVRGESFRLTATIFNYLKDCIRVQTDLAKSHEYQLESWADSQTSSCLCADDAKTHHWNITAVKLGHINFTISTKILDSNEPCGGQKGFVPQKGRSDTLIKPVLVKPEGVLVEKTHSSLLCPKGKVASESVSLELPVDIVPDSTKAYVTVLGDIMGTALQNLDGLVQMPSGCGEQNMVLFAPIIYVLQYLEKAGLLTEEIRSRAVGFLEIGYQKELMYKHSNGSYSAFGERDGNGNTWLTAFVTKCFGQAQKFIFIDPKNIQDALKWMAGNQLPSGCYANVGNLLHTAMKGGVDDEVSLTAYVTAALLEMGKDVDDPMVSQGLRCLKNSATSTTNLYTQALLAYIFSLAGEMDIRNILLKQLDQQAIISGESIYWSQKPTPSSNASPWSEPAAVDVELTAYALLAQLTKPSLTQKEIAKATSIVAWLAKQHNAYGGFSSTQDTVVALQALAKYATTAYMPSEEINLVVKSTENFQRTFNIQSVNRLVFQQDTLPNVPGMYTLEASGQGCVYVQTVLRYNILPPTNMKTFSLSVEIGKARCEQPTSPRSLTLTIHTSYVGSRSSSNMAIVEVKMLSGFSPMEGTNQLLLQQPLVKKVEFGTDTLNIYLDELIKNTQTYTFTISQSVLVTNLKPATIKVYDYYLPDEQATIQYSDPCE

T2: A2M (α2-macroglobulin) (Homo sapiens, UniProt P01023)
T2 construct: WT purified from plasma; N1088H recombinant from HEK293 cells (gene based on mRNA M11311), native form enriched by LRP1 depletion; tetramer; cleaved by chymotrypsin in the assay
T2 sequence (P01023 24-1474): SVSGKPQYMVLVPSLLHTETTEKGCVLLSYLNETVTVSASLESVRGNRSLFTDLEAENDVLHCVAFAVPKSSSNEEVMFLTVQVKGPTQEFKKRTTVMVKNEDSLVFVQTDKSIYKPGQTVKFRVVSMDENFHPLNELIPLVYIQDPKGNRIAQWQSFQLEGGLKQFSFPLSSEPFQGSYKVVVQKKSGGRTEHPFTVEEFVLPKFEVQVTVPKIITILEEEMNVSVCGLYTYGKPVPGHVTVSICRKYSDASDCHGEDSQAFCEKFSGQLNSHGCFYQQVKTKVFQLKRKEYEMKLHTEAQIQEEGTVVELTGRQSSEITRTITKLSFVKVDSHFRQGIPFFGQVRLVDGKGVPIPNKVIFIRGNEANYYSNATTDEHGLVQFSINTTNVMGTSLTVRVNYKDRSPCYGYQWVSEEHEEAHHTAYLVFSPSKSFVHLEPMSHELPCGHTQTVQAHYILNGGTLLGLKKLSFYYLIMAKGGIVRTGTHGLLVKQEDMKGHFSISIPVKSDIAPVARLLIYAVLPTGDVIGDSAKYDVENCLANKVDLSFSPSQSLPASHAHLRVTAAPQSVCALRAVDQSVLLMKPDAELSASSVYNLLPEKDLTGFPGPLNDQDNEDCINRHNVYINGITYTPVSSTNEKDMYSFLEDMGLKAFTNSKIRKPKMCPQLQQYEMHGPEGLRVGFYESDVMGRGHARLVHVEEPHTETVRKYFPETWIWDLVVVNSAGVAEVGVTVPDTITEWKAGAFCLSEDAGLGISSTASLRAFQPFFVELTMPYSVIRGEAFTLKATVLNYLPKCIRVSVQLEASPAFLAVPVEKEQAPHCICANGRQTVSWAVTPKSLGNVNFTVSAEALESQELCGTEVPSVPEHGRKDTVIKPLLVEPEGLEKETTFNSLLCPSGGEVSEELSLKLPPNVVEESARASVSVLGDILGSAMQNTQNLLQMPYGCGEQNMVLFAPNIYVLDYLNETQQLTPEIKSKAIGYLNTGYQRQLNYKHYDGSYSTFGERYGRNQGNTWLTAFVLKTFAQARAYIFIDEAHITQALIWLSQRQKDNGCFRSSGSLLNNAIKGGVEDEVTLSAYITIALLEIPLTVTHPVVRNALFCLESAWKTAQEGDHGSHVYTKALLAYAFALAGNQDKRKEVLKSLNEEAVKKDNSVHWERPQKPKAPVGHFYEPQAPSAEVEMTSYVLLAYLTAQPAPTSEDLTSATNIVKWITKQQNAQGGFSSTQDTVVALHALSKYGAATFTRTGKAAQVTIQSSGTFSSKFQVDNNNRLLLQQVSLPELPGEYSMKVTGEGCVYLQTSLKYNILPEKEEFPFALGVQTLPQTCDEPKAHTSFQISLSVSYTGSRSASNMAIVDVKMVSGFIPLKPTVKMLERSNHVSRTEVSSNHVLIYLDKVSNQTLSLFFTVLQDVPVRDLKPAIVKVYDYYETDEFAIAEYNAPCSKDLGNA

T3: Thermolysin from Geobacillus stearothermophilus, unmodified (Geobacillus stearothermophilus, UniProt P00800 233-548)
T3 sequence (looked up): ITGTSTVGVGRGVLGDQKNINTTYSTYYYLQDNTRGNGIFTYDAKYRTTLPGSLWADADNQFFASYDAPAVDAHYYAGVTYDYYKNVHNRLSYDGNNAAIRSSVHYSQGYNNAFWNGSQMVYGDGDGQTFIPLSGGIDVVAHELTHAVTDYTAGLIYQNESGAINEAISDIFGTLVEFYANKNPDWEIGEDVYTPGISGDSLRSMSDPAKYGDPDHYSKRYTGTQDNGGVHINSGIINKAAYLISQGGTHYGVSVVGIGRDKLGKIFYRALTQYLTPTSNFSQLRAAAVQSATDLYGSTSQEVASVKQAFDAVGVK

B1: Human α2-macroglobulin-like protein 1 (A2ML1), recombinant wild type (natural protein, UniProt A8K2U0-1 18-1454, looked up)
chain: T1 sequence (A8K2U0 18-1454)
modifications: internal thiol ester in which Gln-973 participates
B2: A2ML1 H1084N mutant (natural protein, human, UniProt A8K2U0-1 18-1454, looked up)
chain: T1 sequence (A8K2U0 18-1454) with H1067N
modifications: internal thiol ester in which Gln-973 participates

Columns and labels:
[1] = molecular target: T1, A2ML1 (α2-macroglobulin-like protein 1); test: LC-MS/MS PRM of the pepsin-digested thiol ester peptide conjugate; format: biochemical; conditions: covalent amide at thiol ester Gln-973; A2ML1 activated by chymotrypsin; 200 mM glycine, HBS pH 7.4, 37 °C
A2M (α2-macroglobulin) = molecular target: T2, A2M (α2-macroglobulin); test: as above; format: biochemical; conditions: covalent amide at thiol ester Gln-975; plasma-purified A2M activated by chymotrypsin; 200 mM glycine, HBS pH 7.4, 37 °C
[2] = molecular target: Acetylated thermolysin (Geobacillus stearothermophilus) (UniProt P00800)
[3] = molecular target: T3, Thermolysin from Geobacillus …; test: cell-based or functional assay

| Molecule | LC-MS/MS PRM of the pepsin-digested thiol ester peptide conjugate [1] | LC-MS/MS PRM of the pepsin-digested thiol ester peptide conjugate (A2M (α2-macroglobulin)) | inhibition of acetylated thermolysin's cleavage of resorufin-labeled casein, pH 7.8; molar surplus of A2ML1 needed for full inhibition (fold molar surplus of A2ML1) [2] | inhibition of thermolysin's cleavage of resorufin-labeled casein, pH 7.8; molar surplus of A2ML1 needed for full inhibition [3] | inhibition of thermolysin's cleavage of resorufin-labeled casein, reaction at pH 5; surplus of A2ML1 needed for full inhibition [3] |
| --- | --- | --- | --- | --- | --- |
| NCC(=O)O [glycine] | both WT and H1084N A2ML1s reacted with the amine substrate glycine | both A2Ms were able to conjugate glycine | – | – | – |
| B1 | – | – | 6 | ~2 fold molar surplus of A2ML1 | ~4 fold surplus of A2ML1 |
| B2 | – | – | – | ~2 fold molar surplus of A2ML1 | ~4 fold surplus of A2ML1 |
